From patent US20200024330A1 come the findings set out here.

Holding throughout (experiment): cell-based or functional assay
Experiment [1] concerns the target HIV-1 CMU02 envelope protein (Env) on pseudovirus (HIV-1).
Experiment [2] has as its target HIV-1 MGRM-F1-017 Env (pseudovirus) (HIV-1).
Experiment [3] concerns the target HIV-1 Env of isolate MGRM-D-020 (clade D) (HIV-1).
In experiment [4] the target is HIV-1 MGRM-C-022 Env (HIV-1).
In experiment [5] the target is HIV-1 MGRM-F1-023 Env (pseudovirus) (HIV-1).
Experiment [6] deals with HIV-1 Env of isolate MGRM-D-012 (clade D) (HIV-1).
Experiment [7] addresses HIV-1 Env of isolate SF162 (HIV-1) (UniProt P19549).
The target of experiment [8] is HIV-1 94UG114 envelope glycoprotein (Env) on pseudovirus (HIV-1).
Experiment [9] deals with HIV-1 Env of isolate MGRM-D-024 (clade D) (HIV-1).
In experiment [10] the target is HIV-1 Env of isolate 92TH021 (HIV-1).
Experiment [11] deals with HIV-1 Env of isolate MGRM-D-014 (clade D) (HIV-1).
Experiment [12] concerns the target HIV-1 Env of isolate MGRM-D-029 (clade D) (HIV-1).
Experiment [13] has as its target HIV-1 Env of isolate MGRM-G-024 (clade G pseudovirus) (HIV-1).
In experiment [14] the target is HIV-1 Env of isolate MGRM-D-026 (clade D) (HIV-1).
Experiment [15] has as its target HIV-1 MGRM-A-001 envelope glycoprotein (Env) (HIV-1).

Chain of 1443_C16 (PG16) (TCN-116) (antibody) (VH): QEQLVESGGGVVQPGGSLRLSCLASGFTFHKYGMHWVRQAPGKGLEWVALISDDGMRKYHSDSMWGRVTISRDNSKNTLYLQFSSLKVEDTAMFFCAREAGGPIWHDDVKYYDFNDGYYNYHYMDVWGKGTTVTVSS
Chain of 1443_C16 (PG16) (TCN-116) (antibody) (VL): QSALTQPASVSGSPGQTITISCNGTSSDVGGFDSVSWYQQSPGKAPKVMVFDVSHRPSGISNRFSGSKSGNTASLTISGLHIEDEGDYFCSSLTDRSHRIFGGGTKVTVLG
Chain of HIV-1 Env of isolate SF162 (HIV-1) (P19549 32-852 limits assumed): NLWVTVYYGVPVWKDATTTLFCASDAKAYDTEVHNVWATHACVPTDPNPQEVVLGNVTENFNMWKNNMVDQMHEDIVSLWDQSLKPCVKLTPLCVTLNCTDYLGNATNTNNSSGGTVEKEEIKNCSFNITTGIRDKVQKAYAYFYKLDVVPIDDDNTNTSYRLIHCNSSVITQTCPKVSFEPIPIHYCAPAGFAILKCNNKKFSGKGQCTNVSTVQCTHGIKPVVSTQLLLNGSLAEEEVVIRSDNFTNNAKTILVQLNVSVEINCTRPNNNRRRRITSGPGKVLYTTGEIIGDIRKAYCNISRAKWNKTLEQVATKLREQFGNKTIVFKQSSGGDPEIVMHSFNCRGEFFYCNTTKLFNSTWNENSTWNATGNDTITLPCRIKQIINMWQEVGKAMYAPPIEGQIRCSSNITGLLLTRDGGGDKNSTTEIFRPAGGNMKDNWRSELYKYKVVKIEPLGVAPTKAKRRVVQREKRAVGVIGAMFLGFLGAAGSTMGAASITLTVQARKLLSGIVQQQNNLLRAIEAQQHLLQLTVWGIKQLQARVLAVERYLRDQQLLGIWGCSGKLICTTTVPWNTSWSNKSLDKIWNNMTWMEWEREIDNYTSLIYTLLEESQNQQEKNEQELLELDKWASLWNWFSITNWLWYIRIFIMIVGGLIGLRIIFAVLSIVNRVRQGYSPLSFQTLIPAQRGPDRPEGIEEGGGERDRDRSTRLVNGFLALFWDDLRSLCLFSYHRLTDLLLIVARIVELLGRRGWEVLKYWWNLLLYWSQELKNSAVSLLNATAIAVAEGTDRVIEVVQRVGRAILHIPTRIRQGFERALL

1443_C16 (PG16) (TCN-116) (antibody) returned a neutralization IC50 in experiment [1] greater than 50 µg/mL. The IC50 (µg/ml), pseudovirus neutralization was greater than 50 µg/mL in experiment [2]; 16.3 µg/mL in experiment [3]; greater than 50 µg/mL in experiment [5]; 0.35 µg/mL in experiment [6]; greater than 50 µg/mL in experiment [7]; greater than 50 µg/mL in experiment [8]. The IC50 (µg/ml), pseudovirus neutralization in [9] is 0.02 µg/mL; in [10] it was 0.1 µg/mL; in [11], 0.003 µg/mL; in experiment [12] it was greater than 50 µg/mL; in [13] it was 0.01 µg/mL; in [14], greater than 50 µg/mL. The IC50 (µg/ml), pseudovirus neutralization in experiment [15] was greater than 50 µg/mL. Also, the IC50 (in general, the concentration at which inhibition is half-maximal) in [4] stood at 0.25 µg/mL.
As for 1495_C14 (PGC14) (antibody), the neutralization IC50 in experiment [1] was greater than 50 µg/mL. The IC50 (µg/ml), pseudovirus neutralization in experiment [2] is greater than 50 µg/mL; in experiment [3], greater than 50 µg/mL; in [5] it was greater than 50 µg/mL; in [6] it was greater than 50 µg/mL; in experiment [7], less than 0.0025 µg/mL; in experiment [8], greater than 50 µg/mL. The IC50 (µg/ml), pseudovirus neutralization is greater than 50 µg/mL in [9]; greater than 50 µg/mL in experiment [10]; 48 µg/mL in experiment [11]; greater than 50 µg/mL in experiment [12]; greater than 50 µg/mL in [13]; greater than 50 µg/mL in [14]. In [15], the IC50 (µg/ml), pseudovirus neutralization is greater than 50 µg/mL. The 50% inhibitory concentration (IC50) in [4] is greater than 50 µg/mL.
